Holding throughout (experiment): indirect ELISA, plates coated with TcfA protein fragment
A general note: In an ELISA, binding on a coated surface is turned into a signal by an enzyme label.

Assay [1] deals with T1, TcfA peptide amino acids 305-323 conjugated to bovine serum albumin (Bordetella pertussis, conjugated to bovine serum albumin (BSA)).
T1 construct: Protein fragment coated on ELISA plates; BSA conjugate
T1 peptide: GGDEGPQPPQGGGEQDAPE

Assay [2] concerns the target T2, TcfA peptide amino acids 288-304 conjugated to bovine serum albumin (Bordetella pertussis, conjugated to bovine serum albumin (BSA)).
T2 construct: Protein fragment coated on ELISA plates; BSA conjugate
T2 peptide: QLPERGDDAGPKPPEGE

In assay [3] the target is T3, TcfA peptide amino acids 140-160 conjugated to bovine serum albumin (Bordetella pertussis, conjugated to bovine serum albumin (BSA)).
T3 construct: Protein fragment coated on ELISA plates; BSA conjugate; also called aa140-160
T3 peptide: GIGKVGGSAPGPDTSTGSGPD

For assay [4], the target named is T4, TcfA protein fragment amino acids 40-374 (Bordetella pertussis).
T4 construct: Not conjugated to BSA
T4 chain: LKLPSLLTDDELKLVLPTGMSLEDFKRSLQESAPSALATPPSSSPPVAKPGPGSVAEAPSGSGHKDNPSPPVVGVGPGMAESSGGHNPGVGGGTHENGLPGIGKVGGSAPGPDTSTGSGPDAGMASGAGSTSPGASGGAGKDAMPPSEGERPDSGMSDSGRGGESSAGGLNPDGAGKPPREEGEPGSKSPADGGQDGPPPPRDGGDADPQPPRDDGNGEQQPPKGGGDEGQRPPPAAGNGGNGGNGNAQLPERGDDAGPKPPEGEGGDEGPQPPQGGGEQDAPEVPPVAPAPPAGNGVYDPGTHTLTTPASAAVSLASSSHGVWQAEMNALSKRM

The source of these data is patent US20240092877A1 (DXDISCOVERY, published 2024).

B1: anti-TcfA monoclonal antibody 13E11 (antibody, V domains shown)
VH: EVQLVESGGGLVKPGGSRKLSCAASGFTFSDYGMHWVRQAPEKGLEWVAYISSGSSTIYYADTVKGRFTISRDNAKNTLFLQMTSLRSEDTAMYYCARPRSGRYFDYWGQGTTLTVSS
VL: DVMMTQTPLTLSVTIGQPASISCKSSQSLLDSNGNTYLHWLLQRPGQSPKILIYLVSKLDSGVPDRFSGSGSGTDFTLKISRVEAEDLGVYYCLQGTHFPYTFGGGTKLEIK
Take B1: the binding result in assay [1] and in assay [2] was “binds” in each case.

B2: anti-TcfA monoclonal antibody 10B1 (antibody, V domains shown)
VH: EVQLQQSGAELVKPGASVKLSCTASGFNIKDTYIHWVKQRPEQGLEWIGRIDPANGNTIYASKFQGKAPITAVTSSNTAYMQFSSLTSGDTAVYYCTAMDYWGQGTSVTVSS
VL: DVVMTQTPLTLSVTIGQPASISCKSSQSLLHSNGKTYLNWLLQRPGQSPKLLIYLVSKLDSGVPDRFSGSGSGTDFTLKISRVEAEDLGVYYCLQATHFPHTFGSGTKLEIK
Take B2: the binding result in assay [3] was “binds”.

B3: anti-TcfA monoclonal antibody 7E11 (antibody, V domains shown)
VH: EVQLQQSGAELVKPGASVKLSCTASGFNIKDTYIHWVKQRPEQGLEWIGRIDPANGNIIYASKFQGEATITADTSSNTAYMQLSSLTSGDTAVYYCSAMDYWGQGTSVTVSS
VL: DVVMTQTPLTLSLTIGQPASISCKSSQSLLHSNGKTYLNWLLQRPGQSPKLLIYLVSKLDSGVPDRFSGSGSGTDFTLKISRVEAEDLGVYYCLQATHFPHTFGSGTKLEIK
As for B3, the binding result in assay [3] is on record as “binds”.

B4: anti-TcfA monoclonal antibody 14G11 (antibody, V domains shown)
VH: EVKLVESGGGLVQPGGSLSLSCAASGFTFTDYYMSWVRQPPGKALEWLGFIRNKANGYTTEYSASVKGRFTISRDNSQSILYLQMNALRAEDSATYYCARYRRDYYGSLNYYTMDYWGQGTSVTVSS
VL: DIQMTQSPASLSASVGETVTITCRASENIYSYLAWYQQKQGKSPQLLVYNAKTLAEGVPSRFSGSGSGTQFSLKINSLQPEDFGSYYCQNHYGIPLTFGAGTKLELK
Turning to B4, the binding result in assay [1] is “binds”.

B5: anti-TcfA monoclonal antibody 20F4 (antibody, V domains shown)
VH: QIQLVQSGPELKKPGETVKISCKASGYTFTNYGMNWVKQAPGKGLKWMGWINTYTGEPTYADDFKGRFAFSLETSATTAYLQINNLKNEDTATYFCARAATGYFDYWGQGTTLTVSS
VL: DIVMSQSPSSLAVSAGEKVTMSCKSSQSLLYSSNQKNYLAWYQQKPGQSPKLLIYWASTRESGVPDRFTGSGSGTDFTLTISSVKAEDLAVYYCQQYYNEYTFGGGTKLEIK
B5: in assay [1], the binding result is reported as “binds”.

B6: anti-TcfA monoclonal antibody 18B2 (antibody, V domains shown)
VH: QVQLQQSGAELVRPGTSVKMSCKAAGYTFTNYWIGWVKQRPGHGLEWIGDIYPGGVYTNYNENFKGKATLTADTSSSTAHMQLSSLTSEDSAIYYCVRGGKYGNFFAMDYWGQGTSVTVSS
VL: DIVITQDELSNPVTSGESVSISCRSSKSLLYKDGKTYLNWFLQRPGQSPQLLIYLMSTRASGVSDRFSGSGSGTDFTLEISRVKAEDVGVYYCQQLVEYPFTFGSGTKLEIK
Take B6: the binding result in assay [4] is listed as “binds”.

B7: anti-TcfA monoclonal antibody 23F8 (antibody, V domains shown)
VH: EVQLVESGGGLVKPGGSRKLSCAASGFTFSDYGMHWVRQAPEKGLEWVAYISSGSRTIYYADTVKGRFTISRDNAKNTLFLQMTSLRSEDTAMYYCARLGYGYDWYFDVWGTGTTVTVSS
VL: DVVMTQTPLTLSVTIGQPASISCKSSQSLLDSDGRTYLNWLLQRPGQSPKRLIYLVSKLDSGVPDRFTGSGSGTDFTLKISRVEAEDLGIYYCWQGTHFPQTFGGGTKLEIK
Turning to B7, the binding result in assay [2] is on record as “binds”.

B8: anti-TcfA monoclonal antibody 14D12 (antibody, V domains shown)
VH: EVMLVESGGALVKPGGSLKLSCAASGITFSNYAMSWIRQTPEKRLEWVASISSGGSYIYYSDSVKGRFTISRDNARNTLNLQMSSLRSEDTAMYYCVRGAHGNFDYWGQGTTLTVSS
VL: DIVLTQSPASLAVSLGQRATISCRTSETVDYDGDSYMNWYQQKSGQPPKLLISGASNVESGVPARFSGSGSGTDFSLNIHPVEEDDITMYFCQQNRKLPYTFGSGTKLEMK
With B8, in assay [2], the binding result was “binds”.

B9: anti-TcfA monoclonal antibody 3E6 (antibody, V domains shown)
VH: EVKLVESGGGLVQPGGSLRLSCATSGFTFTDYYMSWVRQPPGKALEWMGFIRNKAKGYTTDYSASVKGRFTISRDDSQSILYLQMNTLRPEDSATYYCARNYDYSMDYWGQGTSVTVSS
VL: DIQLTQSPASLSASVGETVTITCRASDNIHKYLAWYQQKQGKSPQRLVYNAKTLADGVPSRFNGSGSGTQYSLKINSLQPEDFGIYYCQHFWSTPLTFGAGTKLELK
Take B9: in assay [3], the binding result is listed as “binds”.
